{
  "source": "the DeepSol protein solubility set",
  "data": [
    {"experiment": "soluble on expression in E. coli; label from the status in PepcDB or PDB records", "values": [
      {"sequence": "MKSYMTQRLDEYRDGNEDKGRLLVSCPDQPGIVSAVSAFLFEHGANIIESNQYTTDPEGGRFFLRIEFDCAGIREKKSSLQAAFASVAEKFDMTWSLTLASELKRVAIFVSKNLHCLHELIWEWQTGNLMAEIAVVISNHEEARELVERLNIPFHYMKANKDIRAEVEKKQLELLEQYDVDVIVLARYMQILTPDFVSAHPNRIINIHHSFLPAFIGANPYKRAYERGVKLIGATSHYVTNDLDEGPIIEQDIKRVDHRDNAETLKNIGRTIERSVLARAVKWHLEDRVIVHENK", "soluble on expression in E. coli": "not soluble"},
      {"sequence": "MKVEEILEKALELVIPDEEEVRKGREAEEELRRRLDELGVEYVFVGSYARNTWLKGSLEIDVFLLFPEEFSKEELRERGLEIGKAVLDSYEIRYAEHPYVHGVVKGVEVDVVPCYKLKEPKNIKSAVDRTPFHHKWLEGRIKGKENEVRLLKGFLKANGIYGAEYKVRGFSGYLCELLIVFYGSFLETVKNARRWTRRTVIDVAKGEVRKGEEFFVVDPVDEKRNVAANLSLDNLARFVHLCREFMEAPSLGFFKPKHPLEIEPERLRKIVEERGTAVFAVKFRKPDIVDDNLYPQLERASRKIFEFLERENFMPLRSAFKASEEFCYLLFECQIKEISRVFRRMGPQFEDERNVKKFLSRNRAFRPFIENGRWWAFEMRKFTTPEEGVRSYASTHWHTLGKNVGESIREYFEIISGEKLFKEPVTAELCEMMGVKD", "soluble on expression in E. coli": "soluble"},
      {"sequence": "MSLNIMDFNVKKLAADAGTFLSRAVQFTEEKLGQAEKTELDAHLENLLSKAECTKIWTEKIMKQTEVLLQPNPNARIEEFVYEKLDRKAPSRINNPELLGQYMIDAGTEFGPGTAYGNALIKCGETQKRIGTADRELIQTSALNFLTPLRNFIEGDYKTIAKERKLLQNKRLDLDAAKTRLKKAKAAETKSSSEQELRITQSEFDRQAEITRLLLEGISSTHAHHLRCLNDFVEAQMTYYAQCYQYMLDLQKQLGSFPSNYLSNNNQTSGTPVPYALSNAIGPSAQASTGSLVITCPSNLNDLKESSNNRKARVLYDYDAANSTELSLLADEVITVFSVVGMDSDWLMGERGNQKGKVPITYLELLNEGHHHHHH", "soluble on expression in E. coli": "soluble"},
      {"sequence": "MPLPTELARHLTEEKIAFVQRSGLRAEVLEPGYVRLRMPGAGNENHIGSMYAGALFTLAELPGGALFLTSFDSARFYPIVKEMTLRFRRPAKGDIRVEARLDAERIRQLETEAGERGKAEYSLELQLTDEQGEVVAESAALYQLRSHARP", "soluble on expression in E. coli": "soluble"},
      {"sequence": "MGSDKIHHHHHHMKVLNKPLEGVKVIDLTYFVAGPGTSKILADWGADVIKVEPSFGDPGRKTGATMTMPIDDYNNPFYSTYNSNKRGLSINLKSETGIEIMDKLLSEANVFVSSYRTGALKRLGLDYESLSKKHPHLIWGQINGFGDFGPAKDNAGFDTVAFWARSGAMLDIAEKDTSPINPPIAFGDATTSCSLSGGICAALYQQAKTGKGQKVMASLFGQAIWNASSLLASTQFSDEYPKTRKNAISPVINSYRCKDGKWIFLSILEHERYFEALCRLFGREDLIKEEKFASSVESKKNATELINILDGEFAKFTQNEMVEKLTAADIAHEKIQHVNDVVTDEQAIANNYIYEHTSKNGNKTMLASTPVKFGNIEVNMTCDAPLIGEHSDEILRELGYSDSDIEALIESGIVTMNKEACEIC", "soluble on expression in E. coli": "not soluble"},
      {"sequence": "MGHHHHHHSHMAKQPTVLWAQRESLVYLTIEVDEAKIEELKGEGNKLHFQGSSKTDKYEATLEFFDEIDPASVKHTGSSTRVVEITVQKKTPAWWPRLLQNKGKVHWLKVDFGKWKDEDEDDEAEDAGAGIGGGMANGFDLNQYMSQMGGAGGADFGGLEDDEEDDDMPDLEDNEEEEGKNGTRA", "soluble on expression in E. coli": "soluble"},
      {"sequence": "MAKKLFAFLGIGDYKSVEYYFQNKKEGYKTEYIQEAITKLLNEQDLNVTVFVTAEARKKHWEPENNKGLESRLKKLNINCKAVNIPDGKANDDVWKIFTSVYSEIEFNDEIYVDVTHSLRNIPIIFMSVLNYAKVTKNCTIKGIFYGAYEAKENERAPIYDLTLFDQIGEWSSGVEQLLTTGECEMFCSTVEKTLDPLLREAKGKDELIKLVKKCSKLIKEFYTDLKLVRGKSVLEDGRKLYQVLCEIKALNTEKHITMQPFFHILERVENQVAFFQNENLIENILECVKLCKKFGQYQQAYTFLRENIINYVCINTGLDWKKEDPDRLKAEELIGKLYMRKIKKVQIEVSEDIKSILENGEDFICDDAIELFGELIEFRNDLDHAQFRMINPSKDKITCKLDSFIERFEKYYISK", "soluble on expression in E. coli": "not soluble"},
      {"sequence": "MRNTMRSFILRARSAPTDSQRLLDEIGGKCHTEILAHCMMNSLFTAQSHREDVVIHLVLESTRDYSRTITVEANEISDVGGFHEAALIALLVKALDASVGMGKEQTRVVQPGLTVRTISFEALLGELAEHHSLYMMDKKGDSIRDIKIGPNPCFILTDHIPMPKKSGNSMKRLGVEKISLGPKMLFASQCVTLIHNEIDHQEAGW", "soluble on expression in E. coli": "soluble"},
      {"sequence": "MPFFANSDPMMSKLSQIQFADAPTLKGDKYPDVDAHRIIAPIISPIMEVFDQMKENQRARDQAEKIRKDREDHPLSTSRSLWEMFQRLQRPTTTTTEAPPLIERLFKPYIEPWQKQLDDFSKDMAGITLIPTTTTTPAPTTTTTPNFLEKSLSMFFPSLRRKPQSIPTLPPTTTPTPRLFDPEMFDRLFFKRDKRQATIAPAPKFDIFTVPPPPPLFQEWEKPILSLSNPFTLNPLMKMFTTPSPPQTLAPLPKIPEPNPYEIKKGLPEPQFKLQDPFYNPLFPSRKSKMFDFLAGGEAGRLLG", "soluble on expression in E. coli": "not soluble"},
      {"sequence": "MSLHRSEKMKEIKEAYQQCGQIVGEYAPACFKALSYLPLKQRQASWAVLSFCHTAASADEKVLPAFEAKADHVYQRTNNGKQHLWKAFDHAYRTFTLESEPFREFIAAQKEDAKPYDDLDELLMYAYRTGGAAGLMLLPILTRRKQDQLKQAAVSLGLAIQLVRFLSDLGTDQQKNRIPRQVMQQFGYTEADLQKGTVNKAFTMTWEYIAFEAEAYLEECQDALPLFPQYSQKTVKAALHLHRAVLEKIRAKQHDVFQYHFALTETEVKQILSDIEGHHHHHH", "soluble on expression in E. coli": "soluble"},
      {"sequence": "MGSDKIHHHHHHMQHWAIFATDSYSGSLLGRMLAADIQPDEGQICNLPARVGWVSLGLQQALLERELAKDELDYGSTVEALVLECCQDSAQLPALLQKVGLEPLRQRGFRQLSTGETRRVMLARALAMLPQLLILDDPYAGLDAEHQGSLSELLCEVAAHSQLLVITSRQEELPPCISHVALFNSEMLKSGQHVHKLSAPMSIEQWHSHPVMAQLNALSASRSDELLALMERQRHNAEAFDPLVEIKNGKVEYVSCLIFKGVNWRINAGQHWQVRGPNGCGKSTLLGLILGDHPQCYSNDITLFGRPRGSGESIWQIKQRIGIVSSALHLQYRVSCSALDVLLSGFYDSIGLYHKPTKPQVDLAKEWLAILHMNEFASTGFKQLDYGQQRLLLIGRALIKQPLLLILDEPYQGLDFINRTLVMRALEMIAEHHLSQLLYVSHHREDALPAIKNFVDFIKQDNGYSVEVSHRPNELAQRMPIP", "soluble on expression in E. coli": "not soluble"},
      {"sequence": "MKPVTLYDVAEYAGVSYQTVSRVVNQASHVSAKTREKVEAAMAELNYIPNRVAQQLAGKQSLLIGVATSSLALHAPSQIVAAIKSRADQLGASVVVSMVERSGVEACKAAVHNLLAQRVSGLIINYPLDDQDAIAVEAACTNVPALFLDVSDQTPINSIIFSHEDGTRLGVEHLVALGHQQIALLAGPLSSVSARLRLAGWHKYLTRNQIQPIAEREGDWSAMSGFQQTMQMLNEGIVPTAMLVANDQMALGAMRAITESGLRVGADISVVGYDDTEDSSCYIPPLTTIKQDFRLLGQTSVDRLLQLSQGQAVKGNQLLPVSLVKRKTTLAPNTQTASPRALADSLMQLARQVSRLESGQ", "soluble on expression in E. coli": "soluble"},
      {"sequence": "MSLTIEDNHGTEGISLPIEGVAATDNRAFELLDRWGVELVAAPLQLVPFTVTGYTEEGGVANLGSHREPDLEALAAAQPSLIINGQRFAQYYDDIIALNPDATVVELDPRDGEPLDQELIRQAETLGEIFGEEEDAAKIVADFESALERAKTAYAAISDQTVMAVNVSGGNIGYIAPSVGRTYGPIFDLVGLTPALEVGNASSDHEGDDINVEAIAAANPDLILVMDRDGGTSTRNEADYVPAEQIVSDNEALANVKAVTDGYVYYAPADTYTNENIITYTEILNGMADMFEKAAQEGHHHHHH", "soluble on expression in E. coli": "soluble"},
      {"sequence": "MTADDSPSDRWGPRCTTRGPGSDPRFDVPVRGVDVGPETRCAHYHGPRDVIAIRFACCDVFYPCHRCHEETATHPPERWPHDQFNASAVLCGRCRTVLTIEQYLDADHTCPACGAAFNPNCARHHDRYFCVGLEHHHHHH", "soluble on expression in E. coli": "not soluble"},
      {"sequence": "GPGSMTAGAPTTVAGEYPRPSASLHPSVDCSSLNRVPTATAAAPPPPSPRLSGYVMPSVVNPYSQGASQQPAMAHVSEPVNPASYLQQANAMGRWSYQQPPLQQPQYPTLDPVATRVAAIDAEEAAMAAEEMTMRAKLAELQVARKQQEEEQLYLSHGWAQMLEKEERYYTEPVIDLRPDIMAREQQCAMLHNHLQQVEAQAQHAQSQLQGTEYILRDAESFEQERRRVQDAFQEVERRRRECVARAERYFDVEAKRVVEGNKVIRKLDSQLREMTQRGPLAQLQDGNRHPFHRS", "soluble on expression in E. coli": "not soluble"},
      {"sequence": "MLRKDIGIDLGTANTLVFLRGKGIVVNEPSVIAIDSTTGEILKVGLEAKNMIGKTPATIKAIRPMRDGVIADYTVALVMLRYFINKAKGGMNLFKPRVVIGVPIGITDVERRAILDAGLEAGASKVFLIEEPMAAAIGSNLNVEEPSGNMVVDIGGGTTEVAVISLGSIVTWESIRIAGDEMDEAIVQYVRETYRVAIGERTAERVKIEIGNVFPSKENDELETTVSGIDLSTGLPRKLTLKGGEVREALRSVVVAIVESVRTTLEKTPPELVSDIIERGIFLTGGGSLLRGLDTLLQKETGISVIRSEEPLTAVAKGAGMVLDKVNILKKLQGAGGSHHHHHH", "soluble on expression in E. coli": "soluble"},
      {"sequence": "MAHHHHHHMYVFRFHISSFHSFLVNFLQPSRGVGEPSRLLDHLETHPSYMRRVTSTAVHRTVSSVLSPALLPSFNGTLLLSVCFASCSAAPVRNLYKRLGLDHKATSEEVKAAYRQRALECHPDVVDDNRKAQAEVDFRAVSEAYDVLIDPQKRKEHDKALGLERTVPPAKKQQEGEGVGCDSKGSFNRGVTRPRNRKPFVRGDADRNFREAFHGMSLDQVLFRERLRQRRMQKQMEEKAKEGDDGSPAGREESIRRVAAAAAERFAEKVRRQYGPGMLRHARVYTSLSRDPQPPPSDYMPFRPFHGWTVPNGVRTPPEPTLGPTAKVEDVKDVQLAEPAVGDASHQRKLPKHFPVVQAPDGSSLLREEAIACMERERRLPHNMGKLYSYHRPY", "soluble on expression in E. coli": "not soluble"},
      {"sequence": "MNEKQKRFADEYIMNGCNGKKAAISAGYSKKTAESLASRLLRNVNVSEYIKERLEQIQEERLMSITEALALSASIARGEPQEAYSKKYDHLNDEVEKEVTYTITPTFEERQRSIDHILKVYGAYIDKKEITQKNIEINIGEYDDES", "soluble on expression in E. coli": "not soluble"},
      {"sequence": "KELWKLRKLRNHFSIQEEAELLVHSDSVGKGKVFCEKVAEESGVLAENPGFDRWQNSINPAHSDAEILDMYDSMVVSQQDKLATKVVSQHATES", "soluble on expression in E. coli": "not soluble"},
      {"sequence": "MTDTRKFKATDLFSFNNINLDPLTETFNISFYLSYLNKWPSLCVVQESDLSDPTLMGYIMGKSEGTGKEWHTHVTAITVAPNSRRLGLARTMMDYLETVGNSENAFFVDLFVRASNALAIDFYKGLGYSVYRRVIGYYSNPHGKDEDSFDMRKPLSRDVNRESIRENGENFKCSPADVSF", "soluble on expression in E. coli": "soluble"},
      {"sequence": "MTETELSERLRTWLSQDNERMRALELVLQCAQVHDMPQWCIAAGFVRNLVWDKLHGFDRQPLNDIDLIYYCPLDARPERDWAIEACLRACAPELPWSVKNQARMHLKNHDNPYQSSSDAMAYWPEMETAVGVSLNPTLKTSASVIENLQIVAPFGLASLLALTLTRNPRRSLAVFEQRIIAKGWLSQYPQLVLAN", "soluble on expression in E. coli": "soluble"}
    ]}
  ]
}
